Drawing on patent publication US20210338833A1 (MIT, published 2021), this text covers binding result and Kd for eleven molecules.

The labels stand for the following.
B1: 1D3 Mimotope Multimer H1 + E2 SKLKGKSGPEIRVLMSRVFA (peptide)
peptide: SKLKGKSGPEIRVLMSRVFA
notes: Chemically synthesized 20 amino acid fusion of two mimotopes; also called fusion mimotope
B4: anti-mCD19 (clone 1D3) IgG (antibody, V domains shown)
VH: EVQLQQSGAELVRPGTSVKLSCKVSGDTITFYYMHFVKQRPGQGLEWIGRIDPEDESTKYSEKFKNKATLTADTSSNTAYLKLSSLTSEDTATYFCIYGGYYFDYWGQGVMVTVSS
VL: DIQMTQSPASLSTSLGETVTIQCQASEDIYSGLAWYQQKPGKSPQLLIYGASDLQDGVPSRFSGSGSGTQYSLKITSMQTEDEGVYFCQQGLTYPRTFGGGTKLELK
notes: Anti-mouse CD19 IgG; biotinylated for sorting; also called 1D3 antibody; anti-mCD19 IgG
B5: 1D3 Mimotope Multimer H1 + C11 SKLKGKSGPEFHWFINVPPF (peptide)
peptide: SKLKGKSGPEFHWFINVPPF
notes: as for B1
B8: 1D3 Mimotope (H1) SKLKGKSGPE (peptide)
peptide: SKLKGKSGPE

The target of experiment [1] is B4. The experiment is described as follows: yeast display selection with 1D3 IgG. As to the method:
(§1) Specifically, a library was generated using nested PCR and the primers in Table 1. […] For each round of enrichment, the top 0.5-1% of yeast were sorted. Following enrichment, isolated clones were subjected to Sanger sequencing. […] To further characterize the mimotope affinity, absolute binding affinity was measured by ELISA. Specifically, three mimotopes were selected for screening (Table 8). Of the selected sequences, two fusion mimotopes were chemically synthesized. Specifically, two mimotopes were fused to form a 20 amino acid peptide (Table 9).

The target in experiment [2] is B4. The experiment is described as follows: ELISA with anti-mCD19 IgG (1D3). As for the experimental part: as §1
Experiment [3] addresses T1, FMC63 IgG.
T1 construct: Murine monoclonal antibody to human CD19; also called FMC63 IgG antibody; biotinylated FMC63 IgG
Nature of the experiment: flow cytometry of yeast-displayed mutant. As to the method: Specifically, a representative mimotope, […] […] To generate mutations, two complementary oligos with the codon replaced at the desired site were denatured at 95° C. and annealed by slow cooling to 25° C. (decreasing by 0.5° C./second). The annealed oligos were treated with T4 PNK (T4 Polynucleotide Kinase) to add a terminal phosphate, and then ligated into digested pCT-CON2 vector. Positive clones having the correct oligo inserted were tested and transformed into competent EBY100 yeast cells.

Experiment [4] concerns the target B1. The experiment is described as follows: ELISA, OD(450nm) against the concentration of 1D3 IgG; label beside the triangle curve (H1 + E2). As to the method:
as §1

Experiment [5] addresses B5. The experiment is described as follows: ELISA, OD(450nm) against the concentration of 1D3 IgG; label beside the square curve (H1 + C11). As to the method: as §1
The target in experiment [6] is B8. Nature of the experiment: ELISA, OD(450nm) against the concentration of 1D3 IgG; label under the circle curve (H1).
For experiment [7], the target named is T2, FMC63 mimotope K-B5 PPPRICPWNCKELPLDWPW
T2 peptide: PPPRICPWNCKELPLDWPW
Nature of the experiment: flow cytometry of yeast clones titrated with biotinylated FMC63 scFv and streptavidin-PE, MFI (geometric mean); no unit on the concentration axis.

The target of experiment [8] is T3, FMC63 mimotope K-A5 PLSRICPWNCKELYWLPQR
T3 peptide: PLSRICPWNCKELYWLPQR
The experiment is described as above.

For experiment [9], the target named is T4, FMC63 mimotope K-C2 RICPWNCKELPSPPRIFGNR
T4 peptide: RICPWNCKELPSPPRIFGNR
The description is as above.

The target of experiment [10] is T5, FMC63 mimotope K-A11 RICPWNCKELYWLPDE
T5 peptide: RICPWNCKELYWLPDE
The experiment is described as above.

Experiment [11] has as its target T6, FMC63 mimotope K-A1 PRKHSGRICPWNCKELDNPPFIFGNR (not fully specified).
T6 peptide: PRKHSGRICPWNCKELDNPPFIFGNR
The experiment is described as above.

Experiment [12] has as its target T7, FMC63 mimotope K-F5 QFQRICPWNCKELYWLPDQ
T7 peptide: QFQRICPWNCKELYWLPDQ
Described as above.

Experiment [13] concerns the target T8, FMC63 mimotope K-A10 AKRRERDYVGRICPWNCKELHPDTRHRIPV
T8 peptide: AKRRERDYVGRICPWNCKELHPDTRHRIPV
The experiment is described as above.

The target in experiment [14] is T9, FMC63 mimotope K-A3 RICPWNCKELPTPYMMFDM
T9 peptide: RICPWNCKELPTPYMMFDM
Described as above.

For experiment [15], the target named is T10, FMC63 mimotope K-D11 AGTRICPWNCKELYWLPDE
T10 peptide: AGTRICPWNCKELYWLPDE
The description is as above.

For experiment [16], the target named is T11, FMC63 Mimotope (G11) RLCPWNCREL
T11 peptide: RLCPWNCREL
Nature of the experiment: flow cytometry of yeast clones titrated with biotinylated FMC63 scFv monomer, MFI (geometric mean); axis without unit, nM by the legend paragraph 211.

Experiment [17] addresses T12, FMC63 Mimotope (A12) RRCPWSCKKQ
T12 peptide: RRCPWSCKKQ
The description is as above.

Experiment [18] has as its target T13, FMC63 Mimotope (H8) RICPWACVEL
T13 peptide: RICPWACVEL
The description is as above.

Experiment [19] concerns the target T14, FMC63 Mimotope (C7) RLCPWACQEQ
T14 peptide: RLCPWACQEQ
The experiment is described as above.

For experiment [20], the target named is T15, FMC63 Mimotope (F8) RLCPWDCREL
T15 peptide: RLCPWDCREL
The description is as above.

The target in experiment [21] is T16, FMC63 Mimotope (G9) RLCPWSCREL
T16 construct: Parent of the alanine scan
T16 peptide: RLCPWSCREL
The description is as above.

Experiment [22] has as its target T17, FMC63 Mimotope (F12) RICPWNCKEL
T17 construct: also called F12 mimotope
T17 peptide: RICPWNCKEL
Described as above.

The target of experiment [23] is T18, FMC63 Mimotope (E6) RLCPWSCVPI
T18 peptide: RLCPWSCVPI
The experiment is described as above.

Experiment [24] concerns the target T19, FMC63 Mimotope (H11) RICPWSCREL
T19 peptide: RICPWSCREL
The experiment is described as above.

In experiment [25] the target is T20, FMC63 Mimotope (C5) RMCPWSCYEL
T20 peptide: RMCPWSCYEL
The description is as above.

For experiment [26], the target named is T21, FMC63 Mimotope (H1) RVCPWSCMPI
T21 construct: Not the 1D3 mimotope that is also called H1
T21 peptide: RVCPWSCMPI
Described as above.

For experiment [27], the target named is T1, FMC63 IgG. Nature of the experiment: ELISA, N-terminally biotinylated peptide on streptavidin plate, FMC63 IgG.

Ends that are not written are not given here. * marks the point of attachment. Biotin = O=C1N[C@H]2[C@H](CS[C@H]2CCCCC(=O)*)N1

In the case of IRVLMSRVFA [1D3 Mimotope (E2) IRVLMSRVFA], the binding result in experiment [1] is reported as “binds”.
Take B1: the binding result in experiment [2] is “binds”.

B2: FMC63 Mimotope Mutant RLCPWSAACREL (peptide)
peptide: RLCPWSAACREL
notes: also called G9 with two alanines inserted between the cysteines
As for B2, the binding result in the experiment with FMC63 IgG [3] is “no binding (tested: 5 µM FMC63 IgG)”.

B3: FMC63 Mimotope Mutant RLCPWSACREL (peptide)
peptide: RLCPWSACREL
notes: also called G9 with one alanine inserted between the cysteines
In the case of B3, the binding result in the experiment with FMC63 IgG [3] is listed as “no binding (tested: 5 µM FMC63 IgG)”.
Regarding B4, the Kd in [4] came out at 6.7 nM; in [5] it was 102 nM; in experiment [6], 190 nM.
As for B5, the binding result in [2] was “binds”.
As for FHWFINVPPF [1D3 Mimotope (C11) FHWFINVPPF], the binding result in experiment [1] is “binds”.

B6: FMC63 scFv (scFv)
scFv: DIQMTQTTSSLSASLGDRVTISCRASQDISKYLNWYQQKPDGTVKLLIYHTSRLHSGVPSRFSGSGSGTDYSLTISNLEQEDIATYFCQQGNTLPYTFGGGTKLEITGGGGSGGGGSGGGGSEVKLQESGPGLVAPSQSLSVTCTVSGVSLPDYGVSWIRQPPRKGLEWLGVIWGSETTYYNSALKSRLTIIKDNSKSQVFLKMNSLQTDDTAIYYCAKHYYYGGSYAMDYWGQGTSVTVSS
modifications: biotinylated
notes: Whole scFv entry (VL-(G4S)3-VH); also called FMC63-scFv monomer; biotinylated FMC63 scFv
Regarding B6, the binding result in [7], in [8], in experiment [9], in [10], in experiment [11] and in [12] was “binds” each time. Also, the binding result in experiment [13], in experiment [14], in experiment [15], in experiment [16], in [17] and in [18] was “binds” each time. The binding result in experiment [19], in experiment [20], in experiment [21], in experiment [22], in experiment [23] and in [24] was “binds” throughout. Besides, the binding result in experiment [25] and in experiment [26] was “binds” each time.

B7: biotinylated F12 derivative GGGGSGGGGSGGGGSASRICPWNCKEL (peptide)
peptide: Biotin-GGGGSGGGGSGGGGSASRICPWNCKEL
modifications: not fully specified (bridges); cysteine pairing not given here
notes: Free peptide loaded on a streptavidin coated plate for ELISA
As to B7, the dissociation constant (Kd) with FMC63 IgG [27] was found to be 0.153 nM.
Take B8: in experiment [1], the binding result is listed as “binds”.

B9: biotinylated F12 derivative GSGGGGSGGGGSASRICPWNCKEL (peptide)
peptide: Biotin-GSGGGGSGGGGSASRICPWNCKEL
modifications: not fully specified (bridges); cysteine pairing not given here
notes: as for B7
B9 had a dissociation constant Kd with FMC63 IgG [27] of 0.134 nM.
